The target of series [1] is T1, HMfA (Methanothermus fervidus, UniProt P48781 1-69). Description: MST; Hill h 1.08 ± 0.19; MST: 50 mM Tris-HCl pH 8, 75 mM KCl, 20 nM DNA (40 nM diluted 1:1), 5 min at room temperature (0.2% Tween20 where noted); TPM: 50 mM Tris-HCl pH 7, 75 mM KCl. The conditions noted are these: protein: recombinant; chain copies: 2; label: 5' Cy5 top strand; blunt.
The target in series [2] is T2, HMfB (Methanothermus fervidus, UniProt P19267 1-69). Nature of the series: MST; Hill h 3.30 ± 0.97; MST: 50 mM Tris-HCl pH 8, 75 mM KCl, 20 nM DNA (40 nM diluted 1:1), 5 min at room temperature (0.2% Tween20 where noted); TPM: 50 mM Tris-HCl pH 7, 75 mM KCl. The note with it: protein: recombinant; chain copies: 2; label: 5' Cy5 top strand; blunt.
The target of series [3] is T3, HMfB D14A K30A E34A (Methanothermus fervidus, UniProt P19267 1-69, D14A;K30A;E34A). Description: MST; 0.2% Tween20; Hill h 4.09 ± 0.62; MST: 50 mM Tris-HCl pH 8, 75 mM KCl, 20 nM DNA (40 nM diluted 1:1), 5 min at room temperature (0.2% Tween20 where noted); TPM: 50 mM Tris-HCl pH 7, 75 mM KCl. The note with it: protein: recombinant; chain copies: 4; label: 5' Cy5 top strand; blunt.

Series [4] deals with T1, HMfA. Nature of the series: MST; Hill h 1.08 ± 0.21; MST: 50 mM Tris-HCl pH 8, 75 mM KCl, 20 nM DNA (40 nM diluted 1:1), 5 min at room temperature (0.2% Tween20 where noted); TPM: 50 mM Tris-HCl pH 7, 75 mM KCl. The note with it: protein: recombinant; chain copies: 2; label: 5' Cy5 top strand; blunt.
Series [5] concerns the target T3, HMfB D14A K30A E34A. Nature of the series: MST; 0.2% Tween20; Hill h 3.51 ± 0.77; MST: 50 mM Tris-HCl pH 8, 75 mM KCl, 20 nM DNA (40 nM diluted 1:1), 5 min at room temperature (0.2% Tween20 where noted); TPM: 50 mM Tris-HCl pH 7, 75 mM KCl. The conditions noted are these: protein: recombinant; chain copies: 4; label: 5' Cy5 top strand; blunt.
Series [6] deals with T2, HMfB. Description: MST; first (specific) step; Hill h 1.24 ± 0.91; MST: 50 mM Tris-HCl pH 8, 75 mM KCl, 20 nM DNA (40 nM diluted 1:1), 5 min at room temperature (0.2% Tween20 where noted); TPM: 50 mM Tris-HCl pH 7, 75 mM KCl. The conditions noted are these: protein: recombinant; chain copies: 2; label: 5' Cy5 top strand; blunt.
Series [7] deals with T2, HMfB. Description: MST; second (nonspecific) step; Hill h 1.44 ± 0.47; MST: 50 mM Tris-HCl pH 8, 75 mM KCl, 20 nM DNA (40 nM diluted 1:1), 5 min at room temperature (0.2% Tween20 where noted); TPM: 50 mM Tris-HCl pH 7, 75 mM KCl. The note with it: protein: recombinant; chain copies: 2; label: 5' Cy5 top strand; blunt.
Series [8] addresses T1, HMfA. Description: MST; Hill h 1.23 ± 0.16; MST: 50 mM Tris-HCl pH 8, 75 mM KCl, 20 nM DNA (40 nM diluted 1:1), 5 min at room temperature (0.2% Tween20 where noted); TPM: 50 mM Tris-HCl pH 7, 75 mM KCl. The note with it: protein: recombinant; chain copies: 2; label: 5' Cy5 top strand; blunt.
The target in series [9] is T2, HMfB. Nature of the series: MST; second (nonspecific) step; Hill h 1.30 ± 0.38; MST: 50 mM Tris-HCl pH 8, 75 mM KCl, 20 nM DNA (40 nM diluted 1:1), 5 min at room temperature (0.2% Tween20 where noted); TPM: 50 mM Tris-HCl pH 7, 75 mM KCl. The note with it: protein: recombinant; chain copies: 2; label: 5' Cy5 top strand; blunt.
In series [10] the target is T1, HMfA. Nature of the series: MST; Hill h 0.992 ± 0.21; MST: 50 mM Tris-HCl pH 8, 75 mM KCl, 20 nM DNA (40 nM diluted 1:1), 5 min at room temperature (0.2% Tween20 where noted); TPM: 50 mM Tris-HCl pH 7, 75 mM KCl. The conditions noted are these: protein: recombinant; chain copies: 2; label: 5' Cy5 top strand; blunt.
In series [11] the target is T2, HMfB. Description: MST; first (specific) step; Hill h 7.45 ± 3.5; MST: 50 mM Tris-HCl pH 8, 75 mM KCl, 20 nM DNA (40 nM diluted 1:1), 5 min at room temperature (0.2% Tween20 where noted); TPM: 50 mM Tris-HCl pH 7, 75 mM KCl. The conditions noted are these: protein: recombinant; chain copies: 2; label: 5' Cy5 top strand; blunt.
The target in series [12] is T2, HMfB. Nature of the series: MST; second (nonspecific) step; Hill h 0.564 ± 0.30; error exceeds value; MST: 50 mM Tris-HCl pH 8, 75 mM KCl, 20 nM DNA (40 nM diluted 1:1), 5 min at room temperature (0.2% Tween20 where noted); TPM: 50 mM Tris-HCl pH 7, 75 mM KCl. The conditions noted are these: protein: recombinant; chain copies: 2; label: 5' Cy5 top strand; blunt.

T2 sequence (P19267 whole entry): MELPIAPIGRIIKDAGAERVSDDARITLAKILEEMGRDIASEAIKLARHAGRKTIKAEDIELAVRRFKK
T1 sequence (P48781 whole entry): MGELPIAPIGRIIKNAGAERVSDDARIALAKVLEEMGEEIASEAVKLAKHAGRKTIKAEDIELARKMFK
T3 sequence (P19267 whole entry D14A/K30A/E34A): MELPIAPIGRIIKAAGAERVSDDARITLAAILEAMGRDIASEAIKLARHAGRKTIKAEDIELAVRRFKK

B1: Nonspecific 78 bp (dsDNA)
DNA 1: CGGCGCAAATTCGTGACCAGTTGCATCAGCTGCGTGAGCTGTTTATCGCAGCATCGTAACAGGATAGTGAAGAAGACT
DNA 2: AGTCTTCTTCACTATCCTGTTACGATGCTGCGATAAACAGCTCACGCAGCTGATGCAACTGGTCACGAATTTGCGCCG
Usually Kd stands for a measure of binding affinity in units of concentration. On to B1, for which the Kd was 16.5 ± 6.7 µM with HMfA [1], 0.915 ± 0.089 µM with HMfB [2] and 22 ± 0.71 µM in the series with HMfB D14A K30A E34A [3].

B2: Clone20 78 bp (dsDNA)
DNA 1: GGATCCCTGTCGGCACAGTTGAGCGATCAAAAACGCCGTAGAACGCTTTAATTGATAATCAAAGGCCGCAGAGAGCTC
DNA 2: GAGCTCTCTGCGGCCTTTGATTATCAATTAAAGCGTTCTACGGCGTTTTTGATCGCTCAACTGTGCCGACAGGGATCC
Turning to B2, the Kd with HMfA [4] stood at 3.75 ± 0.1 µM; with HMfB D14A K30A E34A [5], 19.6 ± 1.19 µM; with HMfB [6], 0.243 ± 0.16 µM; with HMfB [7], 2.99 ± 0.81 µM.

B3: Clone20L 78 bp (dsDNA)
DNA 1: GGATCCCTGTCGGCACAGTTGAGCGATCAAAAACGCCGTAGATTATCGCAGCATCGTAACAGGATAGTGAAGAAGACT
DNA 2: AGTCTTCTTCACTATCCTGTTACGATGCTGCGATAATCTACGGCGTTTTTGATCGCTCAACTGTGCCGACAGGGATCC
B3: the Kd with HMfA [8] was 8.09 ± 1.4 µM; in the series with HMfB [9] it was 4.11 ± 1 µM.

B4: Clone20R 78 bp (dsDNA)
DNA 1: CGGCGCAAATTCGTGACCAGTTGCATCAGCTGCGTGCGTAGAACGCTTTAATTGATAATCAAAGGCCGCAGAGAGCTC
DNA 2: GAGCTCTCTGCGGCCTTTGATTATCAATTAAAGCGTTCTACGCACGCAGCTGATGCAACTGGTCACGAATTTGCGCCG
On to B4, for which the Kd with HMfA [10] was 7.34 ± 2.8 µM; with HMfB [11], 0.66 ± 0.047 µM; with HMfB [12] it was 12.3 ± 27 µM.

The values above are taken from article PMC10151503, “Specific DNA binding of archaeal histones HMfA and HMfB”.
